According to patent US20190092846A1:

T1: mouse recombinant TGF-β2 (mouse) (UniProt P27090)
T1 sequence (looked up): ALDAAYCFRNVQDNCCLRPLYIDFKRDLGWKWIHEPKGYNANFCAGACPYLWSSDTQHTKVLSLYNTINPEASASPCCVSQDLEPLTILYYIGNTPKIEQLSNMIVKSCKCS

T2: human recombinant TGF-β2 (human)
T2 sequence: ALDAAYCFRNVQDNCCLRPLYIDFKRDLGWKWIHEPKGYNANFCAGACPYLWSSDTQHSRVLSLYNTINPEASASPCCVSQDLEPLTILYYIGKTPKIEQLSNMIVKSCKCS

T3: human TGF-β3 (human) (UniProt P10600)
T3 sequence: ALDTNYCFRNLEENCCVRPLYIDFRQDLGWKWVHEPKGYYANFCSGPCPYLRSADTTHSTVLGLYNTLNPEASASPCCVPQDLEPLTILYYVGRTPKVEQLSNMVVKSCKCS


Legend:
[1] = target: T1, mouse recombinant TGF-β2 (mouse); experiment: cell-based or functional assay
[2] = target: T2, human recombinant TGF-β2 (human); experiment: cell-based or functional assay
human TGF-β3 (human) [3] = target: T3, human TGF-β3 (human); experiment: cell-based or functional assay
human TGF-β1 (human) = human TGF-β1 (human) (UniProt P01137); experiment: cell-based or functional assay
human TGF-β1 (human), sequence (P01137 279-390 limits assumed): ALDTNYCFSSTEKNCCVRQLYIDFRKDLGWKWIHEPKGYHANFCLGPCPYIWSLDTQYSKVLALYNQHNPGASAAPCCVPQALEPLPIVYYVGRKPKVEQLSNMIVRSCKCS

[4] = target: T1, mouse recombinant TGF-β2 (mouse)
[5] = target: T2, human recombinant TGF-β2 (human); experiment: BiaCORE (surface plasmon resonance)
human TGF-β3 (human) [6] = target: T3, human TGF-β3 (human); experiment: BiaCORE (surface plasmon resonance)
[7] = target: T2, human recombinant TGF-β2 (human); experiment: ratio of the KD values of Table 4

RGA (CAGA-12 luc/Smad-2/3 RGA; IC 50 [pM]) [1] [pM]	RGA (CAGA-12 luc/Smad-2/3 RGA; IC 50 [pM]) [2] [pM]	RGA (CAGA-12 luc/Smad-2/3 RGA; IC 50 [pM]) (human TGF-β3 (human) [3]) [pM]	RGA (CAGA-12 luc/Smad-2/3 RGA; IC 50 [pM]) (human TGF-β1 (human)) [pM]	IC50 (read off the curve) (CAGA-12 luciferase reporter gene assay, HEK293T/17) [4] [nM]	Kd [5] [nM]	Kd (human TGF-β3 (human) [6]) [nM]	fold lower KD for TGFβ2 than for TGFbeta 3 [7] [fold]	Binder
> 100000	–	–	–	–	–	–	–	1D11 (antibody, from another filing, V domains shown) VH: QVQLQQSGPELVRPGASVKLSCKASGYIFITYWMNWVKQRPGQGLEWIGQIFPASGSTNYNEMFEGKATLTVDTSSSTAYMQLSSLTSEDSAVYYCARGDGNYALDAMDYWGQGTSVTVSS VL: DIVLTQSPASLAVSLGQRATISCRASESVDSYGNSFMHWYQQKSGQPPKLLIYLASNLESGVPARFSGSGSRTDFTLTIDPVEADDAATYYCQQNNEDPLTFGAGTKLEIK
298	26	1230	> 100000	0.3	0.073	1.18	16	CAT-152 (antibody, INN chains, looked up, human IgG4, V domains shown) VH: EVQLVESGGGVVQPGRSLRLSCAASGFTFSSYGMHWVRQAPGKGLEWVAVIWYDGSNKYYADSVKGRFTISRDNSKNTLYLQMDSLRAEDTAVYYCGRTLESSLWGQGTLVTVSS VL: SSELTQDPAVSVALGQTVRITCQGDSLRSYYASWYQQKPGQAPVLVIYGKNNRPSGIPDRFSGSSSGNTASLTITGAQAEDEADYYCNSRDSSSTHRGVFGGGTKLTVL
